Source: patent US20210061861A1, “D-PEPTIDIC COMPOUNDS FOR VEGF” (Reflexion Pharmaceuticals, Inc., priority 2019, published 2021)
Numbering of substitutions follows the chain as printed. Bridges are numbered along the chain shown (N, C = ends). Where no end group is shown, it is not given here. [ ]: non-standard residue; d: D form.

Columns and labels:
[1] = biological target: T1, VEGF-A binding to VEGFR1 receptor (Homo sapiens, UniProt P15692); assay: VEGF-A:VEGFR1 inhibition in Octet assay; format: biochemical; conditions: for inhibition at 0.08 µM: read-out: % inhibition at 80 nM compound, D-peptidic compounds
T1 sequence (P15692 214-315 limits assumed): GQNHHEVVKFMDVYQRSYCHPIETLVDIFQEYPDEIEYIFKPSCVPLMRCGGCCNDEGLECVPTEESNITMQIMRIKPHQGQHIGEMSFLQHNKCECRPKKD
Procedure: Compounds of interest were assessed for inhibition of VEGF-A:VEGFR1 in an Octet assay.
The resulting dimeric compounds were assayed for VEGF-A inhibition activity in an octet assay.

[2] = biological target: T2, L-VEGF-A (Homo sapiens, UniProt P15692); assay: ka (10^6/M^-1s^-1)
T2 construct: Biotinylated VEGF-A(8-109) was immobilized on a biotin CAPture chip

[3] = biological target: T2, L-VEGF-A; assay: kd (s^-1)
[4] = tested on: HUVEC cell proliferation; conditions: read-out: IC50 for inhibition of cell proliferation in response to VEGF signaling; HUVEC, recombinant VEGF-A
Source text: Here, HUVEC cell proliferation is increased in the presence of recombinant VEGF-A and antagonist compounds that block VEGF-A signaling reduce HUVEC cell proliferation.

[5] = tested on: VEGF-A signaling through VEGFR2; assay: VEGFR2 luciferase reporter cell signaling assay (KDR/NFAT-RE HEK293); format: cell-based; conditions: 150 pM VEGF-A; read-out: IC50, inhibition of VEGFR2 signaling (luciferase)
Procedure: Here VEGF-A activates VEGFR2 signaling in 293 cells resulting in luciferase expression as a functional readout. Inhibition of VEGF-A signaling in this system results in a loss of luciferase signal.
Measurement of VEGF cellular signaling was performed using the VEGF Bioassay (Promega). Briefly, HEK293 cells are engineered to express VEGFR-2 coupled to a luciferase response element (KDR/NFAT-RE HEK293). VEGF signaling through VEGFR-2 mediates expression of luciferase which can be quantified using bioluminescence. […] Following incubation Bio-Glo is added to wells according to the manufacturer's protocol and relative luminescence units (RLUs) were measured on a PerkinElmer 2300 Enspire Multimode plate reader. Data plotted are mean±standard deviation of triplicate measurements. IC50 values were derived from 3-parameter fits using Prism (GraphPad) and error reported are derived from fits.

[6] = biological target: T3, VEGF-A (Homo sapiens, UniProt P15692); conditions: 5 μM 978336 to saturation, then 5 μM 978336 plus 1 μM 11055
T3 sequence (P15692 214-315): T1 sequence (P15692 214-315 limits assumed)

[7] = biological target: VEGF-A (form not stated) (UniProt P15692); assay: Octet; inhibition of VEGF-A (10 nM) binding to VEGFR1
[8] = biological target: T4, Biotinylated human VEGF-A121 (human, UniProt P15692-9 27-147, biotinylated); assay: equilibrium VEGF-A121/VEGFR1 blocking ELISA
T4 construct: Bought; also called VEGF-A121-biot
T4 sequence (looked up): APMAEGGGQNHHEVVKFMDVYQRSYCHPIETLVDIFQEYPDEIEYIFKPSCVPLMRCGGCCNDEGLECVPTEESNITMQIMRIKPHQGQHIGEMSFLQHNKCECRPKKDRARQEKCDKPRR

[9] = biological target: T4, Biotinylated human VEGF-A121; assay: non-equilibrium VEGF-A121 blocking ELISA
[10] = biological target: VEGF-A (form not stated) (UniProt P15692); assay: equilibrium VEGF-A/VEGFR1 blocking ELISA, 150 pM VEGF-A
[11] = biological target: L-VEGF-A (8-109) (Homo sapiens (Human)) (UniProt P15692); assay: SPR, biotinylated VEGF-A(8-109) on a biotin CAPture chip, D-protein in solution, global single site kinetic fit
[12] = biological target: VEGF-A (form not stated) (UniProt P15692); assay: cell-based or functional assay
[13] = biological target: L-VEGF-A (8-109) (Homo sapiens (Human)) (UniProt P15692); assay: SPR per Examples 7, 8, 11 (method not named in Table 4)
[14] = biological target: L-VEGF-A (8-109) (Homo sapiens (Human)) (UniProt P15692); assay: SPR on natural L-VEGF-A
[15] = biological target: VEGF-A (form not stated) (UniProt P15692); assay: VEGF-A blocking ELISA on coated VEGFR1-Fc
[16] = biological target: L-VEGF-A (8-109) (Homo sapiens (Human)) (UniProt P15692); assay: SPR
[17] = biological target: D-VEGF-A (8-109), synthetic mirror-image protein (Homo sapiens (Human)) (UniProt P15692); assay: competitive phage ELISA; L-peptidic compound on D-VEGF-A
[18] = biological target: T4, Biotinylated human VEGF-A121; assay: equilibrium VEGF-A121/VEGFR1 blocking ELISA; soluble VEGFR1-Fc against coated VEGFR1-Fc
[19] = biological target: T5, VEGF-A (form not stated) (UniProt P15692-9 27-147, limits assumed); assay: equilibrium VEGF-A/VEGFR1 blocking ELISA, 150 pM VEGF-A; soluble VEGFR1-Fc against coated VEGFR1-Fc
T5 construct: also called biotinylated-VEGF-A; recombinant VEGF-A
T5 sequence (looked up): T4 sequence (looked up)

[20] = biological target: D-VEGF-A (8-109), synthetic mirror-image protein (Homo sapiens (Human)) (UniProt P15692); assay: SPR; L-peptidic compound on D-VEGF-A
[21] = biological target: VEGF-A (form not stated) (UniProt P15692); assay: Octet; inhibition of VEGF-A binding to VEGFR1

In the case of “[dT][dI][dD][dQ][dW][dL][dL][dK][dN][dA][dK][dE][dD][dA][dI][dA][dE][dL][dK][dK][dA]G[dI][dT][dE][dP][dH][dV][dI][dS][dF][dI][dN][dH][dA][dP][dY][dV][dS][dH][dV][dN]G[dL][dN][dA][dI][dL]G[dR][dT][dV][dP] [1.1.1(c21a) (-kaha, Grtvp), tidqwllknakedaiaelkkaGitephvisfinhapyvshvnGlnailGrtvp]”, the inhibition at 0.08 µM [1] is reported as 27%.

For “yhiqwvcknakedaiaelkkaGitephvisfinhapncshvnGlknailkaha ([dY][dH][dI][dQ][dW][dV][dC][dK][dN][dA][dK][dE][dD][dA][dI][dA][dE][dL][dK][dK][dA]G[dI][dT][dE][dP][dH][dV][dI][dS][dF][dI][dN][dH][dA][dP][dN][dC][dS][dH][dV][dN]G[dL][dK][dN][dA][dI][dL][dK][dA][dH][dA]-NH2; disulfide 7-38; not fully specified; printed as yhiqwvcknakedaiaelkkaGitephvisfinhapncshvnGlknailkaha) [Compound 979110]”, the “ka (10^6/M^-1s^-1)” value [2] was 2.14 10^6/M^-1s^-1 and the “kd” value [3] was 0.0052 s⁻¹.

“[dP][dA][dL][dL][dK][dN][dA][dK][dE][dD][dA][dI][dA][dE][dL][dK][dK][dA]G[dI][dT][dE][dP][dH][dV][dI][dS][dF][dI][dN][dH][dA][dP][dY][dV][dS][dH][dV][dN]G[dL][dK][dN][dA][dI][dL]G[dR][dT][dV][dP] [1.1.1.2 (pa, pis), pallknakedaiaelkkaGitephvisfinhapyvshvnGlknailGrtvp]” gave an inhibition at 0.08 µM [1] of 18%.

bevacizumab [reference compound] gave an IC50 [4] of 0.7 nM and an IC50 [5] of 0.53 nM.

In the case of “tidqwllknakedaiaelkkaGitephvisfinhapyvshvnGlknailkaha [Compound 11055]”, the “binding of 978336 and 11055 together to VEGF-A” value [6] is reported as “additive binding”.

For “tidqwllknakedaiaelkkaGitephvisfinhapyvshvnGlknailkahac(acetyl)”, the “% inhibition at 80 nM compound” value ([1]; D-peptidic compounds) was 68%.

B1: 1.1 (D-peptidic) (designed binder)
chain: [dT][dI][dD][dQ][dW][dL][dL][dK][dN][dA][dK][dE][dD][dA][dI][dA][dE][dL][dK][dK][dA]G[dI][dT][dE][dD][dH][dV][dF][dN][dF][dI][dN][dH][dA][dP][dY][dV][dS][dH][dV][dN]G[dL][dK][dN][dA][dI][dL][dK][dA][dH][dA]
B1 was tested, and the IC50 [7] was 105 nM.

B2: RFX-979110 (designed binder)
chain: [dY][dH][dI][dQ][dW][dV][dC][dK][dN][dA][dK][dE][dD][dA][dI][dA][dE][dL][dK][dK][dA]G[dI][dT][dE][dP][dH][dV][dI][dS][dF][dI][dN][dH][dA][dP][dN][dC][dS][dH][dV][dN]G[dL][dK][dN][dA][dI][dL][dK][dA][dH][dA]-NH2
modifications: disulfide 7-38; not fully specified
B2 showed an IC50 [8] of 7.6 nM, a fold improvement of IC50 over RFX-11055 [9] of 15 fold and an IC50 [10] of 7 nM. The koff [11] was 0.0052 s⁻¹, the kon [11] was 2.14e+06 M⁻¹ s⁻¹ and the HUVEC cell proliferation, apparent IC50 [12] was 131 nM. It also gave an HUVEC cell proliferation, potency against 11055 [12] of 4 fold, a fold decrease in HUVEC cell proliferation, potency against bevacizumab [12] of 185 fold and a Kd [13] of 2.3 nM. It also gave a Kd [14] of 3.6 nM, a fold better IC50 than 11055 [15] of 14.8 fold and a fold affinity improvement over RFX-11055 [16] of 19 fold. It also gave a fold improvement of VEGF binding over 11055 [16] of 10 fold.

B3: 1.1.1(c21a) (-tidqw, -kaha, edwyl) (L-peptidic) (designed binder)
chain: LLKNAKEDAIAELKKAGITEPHVISFINHAPYVSHVNGLKNAILEDWYL
Molecule B3 has an IC50 [17] of 0.86 to 1.1 nM.

B4: VEGFR1-Fc (Fc fusion, UniProt P17948 27-756, looked up)
chain: SKLKDPELSLKGTQHIMQAGQTLHLQCRGEAAHKWSLPEMVSKESERLSITKSACGRNGKQFCSTLTLNTAQANHTGFYSCKYLAVPTSKKKETESAIYIFISDTGRPFVEMYSEIPEIIHMTEGRELVIPCRVTSPNITVTLKKFPLDTLIPDGKRIIWDSRKGFIISNATYKEIGLLTCEATVNGHLYKTNYLTHRQTNTIIDVQISTPRPVKLLRGHTLVLNCTATTPLNTRVQMTWSYPDEKNKRASVRRRIDQSNSHANIFYSVLTIDKMQNKDKGLYTCRVRSGPSFKSVNTSVHIYDKAFITVKHRKQQVLETVAGKRSYRLSMKVKAFPSPEVVWLKDGLPATEKSARYLTRGYSLIIKDVTEEDAGNYTILLSIKQSNVFKNLTATLIVNVKPQIYEKAVSSFPDPALYPLGSRQILTCTAYGIPQPTIKWFWHPCNHNHSEARCDFCSNNEESFILDADSNMGNRIESITQRMAIIEGKNKMASTLVVADSRISGIYICIASNKVGTVGRNISFYITDVPNGFHVNLEKMPTEGEDLKLSCTVNKFLYRDVTWILLRTVNNRTMHYSISKQKMAITKEHSITLNLTIMNVSLQDSGTYACRARNVYTGEEILQKKEITIRDQEAPYLLRNLSDHTVAISSSTTLDCHANGVPEPQITWFKNNHKIQQEPGIILGPGSSTLFIERVTEEDEGVYHCKATNQKGSVESSAYLTVQGTSDKSN
notes: Bought; also called VEGFR1-Fc fusion; soluble decoy receptor VEGFR1-Fc; not shown: Fc part
For B4, the IC50 [18] was 0.23 nM and the IC50 [19] was 0.22 nM.

B5: 1.1 (-kaha, GehGsp) (L-peptidic) (designed binder)
chain: TIDQWLLKNAKEDAIAELKKAGITEDHVFNFINHAPYVSHVNGLKNAILGEHGSP
Molecule B5 has an IC50 [17] of 14 nM.

B6: 1.1 (-tidqw) (L-peptidic) (designed binder)
chain: LLKNAKEDAIAELKKAGITEDHVFNFINHAPYVSHVNGLKNAILKAHA
Work on B6 yielded a Kd [20] of 450 nM.

B7: 1.1 (L-peptidic) (designed binder)
chain: TIDQWLLKNAKEDAIAELKKAGITEDHVFNFINHAPYVSHVNGLKNAILKAHA
For B7, the IC50 [17] was 100 to 105 nM and the Kd [20] was 140 nM.

B8: 1.1 (-kaha, adfl) (L-peptidic) (designed binder)
chain: B7 chain with K50A, A51D, H52F, A53L
In the case of B8, the IC50 [17] is reported as 12 nM.

B9: 1.1 (-kaha, edyl) (L-peptidic) (designed binder)
chain: B7 chain with K50E, A51D, H52Y, A53L
In the case of B9, the IC50 [17] is reported as 5 nM.

B10: 1.1.1.2 (pa, pis) (D-peptidic) (designed binder)
chain: [dP][dA][dL][dL][dK][dN][dA][dK][dE][dD][dA][dI][dA][dE][dL][dK][dK][dA]G[dI][dT][dE][dP][dH][dV][dI][dS][dF][dI][dN][dH][dA][dP][dY][dV][dS][dH][dV][dN]G[dL][dK][dN][dA][dI][dL]G[dR][dT][dV][dP]
Molecule B10 has a % inhibition at 80 nM compound [21] of 18%.
